Laboratory results as given in patent US20140087995A1 (published 2014).
Numbered stars: 1 amine (or outer) side, 2 acyl side, 3 side chain; on linkers, the order of the positions; unused ones are H or OH. Bridge positions count the residues as written; N and C are the ends. Side chains are listed from the residue outwards. Ends that are not written are not given here. * marks the point of attachment. C20 diacid = O=C(O)CCCCCCCCCCCCCCCCCCC(=O)*; γGlu = O=C(O)[C@H](CCC(=O)[*:2])N[*:1]; AEEA = NCCOCCOCC(=O)O

B1: N^ε1-[2-[2-[2-[[(4S)-4-carboxy-4-(19-carboxynonadecanoylamino)butanoyl]amino]ethoxy]ethoxy]acetyl]-[Arg17,Pro21,Pro27,Pro31,His35]-h-amylin (peptide)
peptide: K([AEEA-γGlu-C20 diacid])CNTATCATQRLANFLRHSSPNFGAIPSSTPVGSHTY-NH2
modifications: disulfide 2-7; N-terminus assumed
SMILES: CC[C@H](C)[C@H](NC(=O)[C@H](C)NC(=O)CNC(=O)[C@H](Cc1ccccc1)NC(=O)[C@H](CC(N)=O)NC(=O)[C@@H]1CCCN1C(=O)[C@H](CO)NC(=O)[C@H](CO)NC(=O)[C@H](Cc1c[nH]cn1)NC(=O)[C@H](CCCNC(=N)N)NC(=O)[C@H](CC(C)C)NC(=O)[C@H](Cc1ccccc1)NC(=O)[C@H](CC(N)=O)NC(=O)[C@H](C)NC(=O)[C@H](CC(C)C)NC(=O)[C@H](CCCNC(=N)N)NC(=O)[C@H](CCC(N)=O)NC(=O)[C@@H](NC(=O)[C@H](C)NC(=O)[C@@H]1CSSC[C@H](NC(=O)[C@@H](N)CCCCNC(=O)COCCOCCNC(=O)CC[C@H](NC(=O)CCCCCCCCCCCCCCCCCCC(=O)O)C(=O)O)C(=O)N[C@@H](CC(N)=O)C(=O)N[C@@H]([C@@H](C)O)C(=O)N[C@@H](C)C(=O)N[C@@H]([C@@H](C)O)C(=O)N1)[C@@H](C)O)C(=O)N1CCC[C@H]1C(=O)N[C@@H](CO)C(=O)N[C@@H](CO)C(=O)N[C@H](C(=O)N1CCC[C@H]1C(=O)N[C@H](C(=O)NCC(=O)N[C@@H](CO)C(=O)N[C@@H](Cc1c[nH]cn1)C(=O)N[C@H](C(=O)N[C@@H](Cc1ccc(O)cc1)C(N)=O)[C@@H](C)O)C(C)C)[C@@H](C)O
notes: also called compound 57
B2: N^ε1-[2-[2-[2-[[(4S)-4-carboxy-4-(19-carboxynonadecanoylamino)butanoyl]amino]ethoxy]ethoxy]acetyl]-[Gly14,Arg17,Pro21,Pro27,Pro31]-h-amylin (peptide)
peptide: K([AEEA-γGlu-C20 diacid])CNTATCATQRLAGFLRHSSPNFGAIPSSTPVGSNTY-NH2
modifications: disulfide 2-7; N-terminus assumed
SMILES: CC[C@H](C)[C@H](NC(=O)[C@H](C)NC(=O)CNC(=O)[C@H](Cc1ccccc1)NC(=O)[C@H](CC(N)=O)NC(=O)[C@@H]1CCCN1C(=O)[C@H](CO)NC(=O)[C@H](CO)NC(=O)[C@H](Cc1c[nH]cn1)NC(=O)[C@H](CCCNC(=N)N)NC(=O)[C@H](CC(C)C)NC(=O)[C@H](Cc1ccccc1)NC(=O)CNC(=O)[C@H](C)NC(=O)[C@H](CC(C)C)NC(=O)[C@H](CCCNC(=N)N)NC(=O)[C@H](CCC(N)=O)NC(=O)[C@@H](NC(=O)[C@H](C)NC(=O)[C@@H]1CSSC[C@H](NC(=O)[C@@H](N)CCCCNC(=O)COCCOCCNC(=O)CC[C@H](NC(=O)CCCCCCCCCCCCCCCCCCC(=O)O)C(=O)O)C(=O)N[C@@H](CC(N)=O)C(=O)N[C@@H]([C@@H](C)O)C(=O)N[C@@H](C)C(=O)N[C@@H]([C@@H](C)O)C(=O)N1)[C@@H](C)O)C(=O)N1CCC[C@H]1C(=O)N[C@@H](CO)C(=O)N[C@@H](CO)C(=O)N[C@H](C(=O)N1CCC[C@H]1C(=O)N[C@H](C(=O)NCC(=O)N[C@@H](CO)C(=O)N[C@@H](CC(N)=O)C(=O)N[C@H](C(=O)N[C@@H](Cc1ccc(O)cc1)C(N)=O)[C@@H](C)O)C(C)C)[C@@H](C)O
notes: also called compound 71
B3: N^ε1-[2-[2-[2-[[(4S)-4-carboxy-4-(19-carboxynonadecanoylamino)butanoyl]amino]ethoxy]ethoxy]acetyl]-[Arg17,Pro21,Pro27,Pro34,His35]-h-amylin (peptide)
peptide: K([AEEA-γGlu-C20 diacid])CNTATCATQRLANFLRHSSPNFGAIPSSTNVGPHTY-NH2
modifications: disulfide 2-7; N-terminus assumed
SMILES: CC[C@H](C)[C@H](NC(=O)[C@H](C)NC(=O)CNC(=O)[C@H](Cc1ccccc1)NC(=O)[C@H](CC(N)=O)NC(=O)[C@@H]1CCCN1C(=O)[C@H](CO)NC(=O)[C@H](CO)NC(=O)[C@H](Cc1c[nH]cn1)NC(=O)[C@H](CCCNC(=N)N)NC(=O)[C@H](CC(C)C)NC(=O)[C@H](Cc1ccccc1)NC(=O)[C@H](CC(N)=O)NC(=O)[C@H](C)NC(=O)[C@H](CC(C)C)NC(=O)[C@H](CCCNC(=N)N)NC(=O)[C@H](CCC(N)=O)NC(=O)[C@@H](NC(=O)[C@H](C)NC(=O)[C@@H]1CSSC[C@H](NC(=O)[C@@H](N)CCCCNC(=O)COCCOCCNC(=O)CC[C@H](NC(=O)CCCCCCCCCCCCCCCCCCC(=O)O)C(=O)O)C(=O)N[C@@H](CC(N)=O)C(=O)N[C@@H]([C@@H](C)O)C(=O)N[C@@H](C)C(=O)N[C@@H]([C@@H](C)O)C(=O)N1)[C@@H](C)O)C(=O)N1CCC[C@H]1C(=O)N[C@@H](CO)C(=O)N[C@@H](CO)C(=O)N[C@H](C(=O)N[C@@H](CC(N)=O)C(=O)N[C@H](C(=O)NCC(=O)N1CCC[C@H]1C(=O)N[C@@H](Cc1c[nH]cn1)C(=O)N[C@H](C(=O)N[C@@H](Cc1ccc(O)cc1)C(N)=O)[C@@H](C)O)C(C)C)[C@@H](C)O
notes: also called compound 58
B4: N^ε1-[2-[2-[2-[[(4S)-4-carboxy-4-(19-carboxynonadecanoylamino)butanoyl]amino]ethoxy]ethoxy]acetyl]-[Arg17,Pro21,Pro27,Pro34]-h-amylin (peptide)
peptide: K([AEEA-γGlu-C20 diacid])CNTATCATQRLANFLRHSSPNFGAIPSSTNVGPNTY-NH2
modifications: disulfide 2-7; N-terminus assumed
SMILES: CC[C@H](C)[C@H](NC(=O)[C@H](C)NC(=O)CNC(=O)[C@H](Cc1ccccc1)NC(=O)[C@H](CC(N)=O)NC(=O)[C@@H]1CCCN1C(=O)[C@H](CO)NC(=O)[C@H](CO)NC(=O)[C@H](Cc1c[nH]cn1)NC(=O)[C@H](CCCNC(=N)N)NC(=O)[C@H](CC(C)C)NC(=O)[C@H](Cc1ccccc1)NC(=O)[C@H](CC(N)=O)NC(=O)[C@H](C)NC(=O)[C@H](CC(C)C)NC(=O)[C@H](CCCNC(=N)N)NC(=O)[C@H](CCC(N)=O)NC(=O)[C@@H](NC(=O)[C@H](C)NC(=O)[C@@H]1CSSC[C@H](NC(=O)[C@@H](N)CCCCNC(=O)COCCOCCNC(=O)CC[C@H](NC(=O)CCCCCCCCCCCCCCCCCCC(=O)O)C(=O)O)C(=O)N[C@@H](CC(N)=O)C(=O)N[C@@H]([C@@H](C)O)C(=O)N[C@@H](C)C(=O)N[C@@H]([C@@H](C)O)C(=O)N1)[C@@H](C)O)C(=O)N1CCC[C@H]1C(=O)N[C@@H](CO)C(=O)N[C@@H](CO)C(=O)N[C@H](C(=O)N[C@@H](CC(N)=O)C(=O)N[C@H](C(=O)NCC(=O)N1CCC[C@H]1C(=O)N[C@@H](CC(N)=O)C(=O)N[C@H](C(=O)N[C@@H](Cc1ccc(O)cc1)C(N)=O)[C@@H](C)O)C(C)C)[C@@H](C)O
notes: also called compound 50
B5: N^ε1-[2-[2-[2-[[(4S)-4-carboxy-4-(19-carboxynonadecanoylamino)butanoyl]amino]ethoxy]ethoxy]acetyl]-[His14,Arg17,Pro21,Pro27,Pro34]-h-amylin (peptide)
peptide: K([AEEA-γGlu-C20 diacid])CNTATCATQRLAHFLRHSSPNFGAIPSSTNVGPNTY-NH2
modifications: disulfide 2-7; N-terminus assumed
SMILES: CC[C@H](C)[C@H](NC(=O)[C@H](C)NC(=O)CNC(=O)[C@H](Cc1ccccc1)NC(=O)[C@H](CC(N)=O)NC(=O)[C@@H]1CCCN1C(=O)[C@H](CO)NC(=O)[C@H](CO)NC(=O)[C@H](Cc1c[nH]cn1)NC(=O)[C@H](CCCNC(=N)N)NC(=O)[C@H](CC(C)C)NC(=O)[C@H](Cc1ccccc1)NC(=O)[C@H](Cc1c[nH]cn1)NC(=O)[C@H](C)NC(=O)[C@H](CC(C)C)NC(=O)[C@H](CCCNC(=N)N)NC(=O)[C@H](CCC(N)=O)NC(=O)[C@@H](NC(=O)[C@H](C)NC(=O)[C@@H]1CSSC[C@H](NC(=O)[C@@H](N)CCCCNC(=O)COCCOCCNC(=O)CC[C@H](NC(=O)CCCCCCCCCCCCCCCCCCC(=O)O)C(=O)O)C(=O)N[C@@H](CC(N)=O)C(=O)N[C@@H]([C@@H](C)O)C(=O)N[C@@H](C)C(=O)N[C@@H]([C@@H](C)O)C(=O)N1)[C@@H](C)O)C(=O)N1CCC[C@H]1C(=O)N[C@@H](CO)C(=O)N[C@@H](CO)C(=O)N[C@H](C(=O)N[C@@H](CC(N)=O)C(=O)N[C@H](C(=O)NCC(=O)N1CCC[C@H]1C(=O)N[C@@H](CC(N)=O)C(=O)N[C@H](C(=O)N[C@@H](Cc1ccc(O)cc1)C(N)=O)[C@@H](C)O)C(C)C)[C@@H](C)O
notes: also called compound 68
B6: N^ε1-[2-[2-[2-[[(4S)-4-carboxy-4-(19-carboxynonadecanoylamino)butanoyl]amino]ethoxy]ethoxy]acetyl]-[His14,Arg17,Pro21,Pro27,Pro31]-h-amylin (peptide)
peptide: K([AEEA-γGlu-C20 diacid])CNTATCATQRLAHFLRHSSPNFGAIPSSTPVGSNTY-NH2
modifications: disulfide 2-7; N-terminus assumed
SMILES: CC[C@H](C)[C@H](NC(=O)[C@H](C)NC(=O)CNC(=O)[C@H](Cc1ccccc1)NC(=O)[C@H](CC(N)=O)NC(=O)[C@@H]1CCCN1C(=O)[C@H](CO)NC(=O)[C@H](CO)NC(=O)[C@H](Cc1c[nH]cn1)NC(=O)[C@H](CCCNC(=N)N)NC(=O)[C@H](CC(C)C)NC(=O)[C@H](Cc1ccccc1)NC(=O)[C@H](Cc1c[nH]cn1)NC(=O)[C@H](C)NC(=O)[C@H](CC(C)C)NC(=O)[C@H](CCCNC(=N)N)NC(=O)[C@H](CCC(N)=O)NC(=O)[C@@H](NC(=O)[C@H](C)NC(=O)[C@@H]1CSSC[C@H](NC(=O)[C@@H](N)CCCCNC(=O)COCCOCCNC(=O)CC[C@H](NC(=O)CCCCCCCCCCCCCCCCCCC(=O)O)C(=O)O)C(=O)N[C@@H](CC(N)=O)C(=O)N[C@@H]([C@@H](C)O)C(=O)N[C@@H](C)C(=O)N[C@@H]([C@@H](C)O)C(=O)N1)[C@@H](C)O)C(=O)N1CCC[C@H]1C(=O)N[C@@H](CO)C(=O)N[C@@H](CO)C(=O)N[C@H](C(=O)N1CCC[C@H]1C(=O)N[C@H](C(=O)NCC(=O)N[C@@H](CO)C(=O)N[C@@H](CC(N)=O)C(=O)N[C@H](C(=O)N[C@@H](Cc1ccc(O)cc1)C(N)=O)[C@@H](C)O)C(C)C)[C@@H](C)O
notes: also called compound 61

These binders were tested against T1, human calcitonin receptor (human, UniProt P30988 25-474) (assay: SPA competition with 125I-calcitonin, membranes of BHK hCTR cells (Assay VII)).
T1 construct: whole, on cells; also called hCTR; hCT
T1 sequence (looked up): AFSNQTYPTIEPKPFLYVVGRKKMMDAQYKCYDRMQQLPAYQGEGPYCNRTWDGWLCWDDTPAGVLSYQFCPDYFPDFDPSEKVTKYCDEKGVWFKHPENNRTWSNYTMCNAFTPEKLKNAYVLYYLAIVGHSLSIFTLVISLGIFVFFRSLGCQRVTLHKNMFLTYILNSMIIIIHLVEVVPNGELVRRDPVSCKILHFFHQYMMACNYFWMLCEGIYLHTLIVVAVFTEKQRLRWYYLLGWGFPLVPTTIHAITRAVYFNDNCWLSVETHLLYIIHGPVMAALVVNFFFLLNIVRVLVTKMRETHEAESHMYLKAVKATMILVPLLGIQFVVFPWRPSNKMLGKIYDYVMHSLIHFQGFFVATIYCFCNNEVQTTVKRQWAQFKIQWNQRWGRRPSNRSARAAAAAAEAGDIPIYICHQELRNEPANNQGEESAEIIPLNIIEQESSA
Protocol: Membranes were prepared in the following way; the cells were rinsed with PBS and incubated with Versene for approximately 5 min before harvesting. The cells were flushed with PBS and the cell-suspension was centrifuged for 5 min at 1000 rpm. Cells were homogenized (Ultrathurrax) in a buffer containing 20 mM Na-HEPES and 10 mM EDTA (pH 7.4) and centrifuged at 20.000 rpm for 15 min. The resulting pellet was resuspended, homogenized and centrifuged (20.000 rpm, 15 min) in a buffer containing 20 mM Na-HEPES and 0.1 mM EDTA (pH 7.4, buffer 2). The resulting pellet was resuspended in buffer 2 and protein concentration was measured (BCA protein Assay, Pierce). The homogenate was kept cold during the whole procedure. The membranes were kept at −80° C. until use. Assay was performed in a 384 well Optiplate (PerkinElmer) in a total volume of 40 ul. Membranes were mixed with SPA beads. Final concentration of membranes 35 ng/μL final and Final concentration of SPA beads was 0.05 mg/well. Test-compounds were dissolved in DMSO and further diluted in assay buffer (50 mM Hepes, pH 7.4, 1 mM CaCl2, 5 mM MgCl₂, 0.1% OA and 0.02% Tween20). […] The final mixture was incubated for 120 min with shaking at 400 rpm at 25° C. prior to centrifugation (1500 rpm, 10 min). Samples were analyzed on TopCounter™ (Packard). The […] was calculated using (one site binding competition analysis) GraphPad Prism5 as a measure of receptor affinity.

| Binder | IC50 [nM] |
| --- | --- |
| B1 | 15.3 |
| B2 | 1.53 |
| B3 | 9.63 |
| B4 | 1.38 |
| B5 | 5.66 |
| B6 | 8.11 |
